Assay results reported in the RNAGym collection of RNA variant scans (doi:10.1073/pnas.2313332121).

B1: TPR t1 (parent)
chain: GACCAAUCUGCCCUCAGAGCUCGAGAACAUCUUCGGAUGCAGAGGAGGCAGGCUUCGGUGGCGCGAUAGCGCCAACGUCCUCAACCUCCAAUGCAUCCCACCACAUGAUGAUGCCUGAAGAGCCUUGGUUUUUUG

Variants of: B1
Assay: polymerase ribozyme fitness, log enrichment relative to wild type (log ratio); higher = more active; in vitro selection for triplet polymerase activity
How it was run: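 Libraries of mutants in each subunit of a heterodimeric triplet polymerase ribozyme were generated by PCR and transcribed. In triplicate, each went through one in vitro selection round: annealing with biotinylated primer, partner subunit and triplets; frozen incubation at −7 °C; gel excision of extended constructs; streptavidin-bead capture; RT-PCR. Fitness, taken from Illumina sequencing of input and output libraries, is the logarithm of a genotype's enrichment over wild-type enrichment, averaged across replicates with inverse-variance weights. The logarithm is base 2, and genotypes needed ≥10 input reads and ≥1 read per output to be kept.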

Variant | polymerase ribozyme fitness (log ratio)
G45U C97A U112A | -5.81
G45A G69U A103C | -2.35
G45U C64U C79G C114U | -5.29
G44C G48A | -0.967
G45U C56G G63C C101U | -5.92
A46U C115A | -1.98
G45U C124A | 0.716
G45C U125A | -1.86
G45A C53U C97U C115U U126C U130A | -5.76
G45U C53U A105U | -3.69
G44C G61A A66G A75G | -2.01
G44C G60U U116C C124A | -0.335
A46G C56A C101G U126C | -2.14
A46G A90C C99U U106C | -4.81
G45A C72U A91G U129A | -3.43
G45U C64U A121G G135A | 0.974
G44C U59G C80A | -4.66
G45A C72U C89G A91C | -1.81
A46G A95U A105U U109A | -6.27
G45A G48U | -1.58
G47A C53G C101U U131A | -1.26

Variant | polymerase ribozyme fitness (log ratio)
G44C U55A C70G U126G | -5.73
A46U A74U A91G C123G | -3.09
A46G C49G G69C C104U | -3.16
G44U G47U U55C | -2.82
G45A C53A U81C | -0.267
A46U A74U G113A | -1.99
A46G G110U U116A | -4.29
G44U C124A | 1.15
A46G G63C G110U U116A U130C | -4.2
A46C U54A G120U | -0.501
G44C C70A | -2.37
A46C G69U G135U | -0.586
G44U C97A | -6.15
G44U C70U A111C C124U | -2.44
G45C A46U | -2.34
G45C G60C U78A C89A G120C G127A | -5.17
G45U U116G | -3.76
A46C C72U U81A A105C | -4.47
A46U C124A U131C | 1.32
G47A C56A G113U C114A A121G | -2.45
A46U A90U A105U C115U C124U | -5.04

Variant | polymerase ribozyme fitness (log ratio)
A46G C86G | -1.96
G44U C80U | -1.59
G44C G60U | -0.287
G45A G63C G110A | -1.54
G44U C49U U96C A111G | -3.97
G44C U55A C70U C88G G117C | -6.75
G45U A90C A105G U106A U130G U131A | -2.74
G45U A50U G117U | -4.81
A46C G51C | -4.63
G45U C62A C89G U112A | -4.99
A46G C85G | -2.68
G44U G48U G57C C104A | -3.32
A46U G61A A66U G113U C123G U129A | -5.08
A46U U112A | 0.36
G45U G110A | -2.13
G45U U96C | -1.43
G45C C73U | -0.881
A46C G61U U106A | 0.556
A46G C79A | -1.06
A46U C62G C88A | -4.01
G45A C53G G61A C79U C98U | -3.8

Variant | polymerase ribozyme fitness (log ratio)
G44U A46U G117U | -4.65
A46C C56U U78A A90G C94U A111C | 0.0877
G45U G61A C88U A90C G113A | -3
G45A G51A | -3.66
G45A G51U | -4.34
G44U G69C | -0.825
G45U C85U | -2.01
A46U C62U A91U A103G U106A C114U U131G | -6.47
G44U A111U | -4.9
G45U C104U A119G U130A | -1.09
G45C G61U C86U U87G G93C | -2.62
G45U G69U A119U | -0.819
G45A A105G | -3.69
G45A G63A C104A | -3.61
A46G G120C G128C | -2.6
G44U G47A G63C G120U U130G | -4.01
G47A C70G | -4.77
A46C C115A | -1.52
A46U C72G | -1.4
A46U G48A C62U | -2.23
G44U G51C | -5.32
